According to publication PMC4428384, “Differences in conformational dynamics within the Hsp90 chaperone family reveal mechanistic insights” (Frontiers in Molecular Biosciences, 2014):

What was measured:
[1] = biological target: the molecule itself; assay: FRET or BRET; subunit exchange, dimer to monomers: ATTO 488 and ATTO 550 labeled proteins combined (400 nM each), rapidly mixed 1:1 with unlabeled protein (20 μM) in a stopped-flow device, 480 nm excitation, 590 nm cut-off filter; no nucleotide (apo)
[2] = biological target: the molecule itself; assay: FRET or BRET; subunit exchange as in a1, in the presence of ADP
[3] = biological target: the molecule itself; assay: FRET or BRET; subunit exchange as in a1, in the presence of ATP

B1: hHsp90β-E20C,C366A,C412T,C521A,C564T,C589A,C590A, labeled with ATTO 488 or ATTO 550 (natural protein)
chain: not shown
modifications: ATTO 488 maleimide or ATTO 550 maleimide on the single cysteine (E20C)
notes: human Hsp90β; single cysteine variant with the natural cysteines replaced; Homodimeric protein; the rows are protomer with protomer
- subunit exchange rate [1]: 0.016 s⁻¹
- subunit exchange rate [2]: 0.016 s⁻¹
- subunit exchange rate [3]: 0.01 s⁻¹
